# Experimental data published in patent publication US20190002533A1 (Novartis, published 2019).
# Substitutions are numbered along the chain they refer to.
# B1: P8D11 (antibody, human IgG1, lambda)
# heavy: not shown
# light: QSVLTQPPSVSVAPGKTARITCGGDNIGSRPVHWYQQKPGQAPILVVYDDSNRPSGIPERFSGSNSGNTATLTISRVEAGDEADYYCQVWSSSTDHPFGGGTKVTVLGQPKAAPSVTLFPPSSEELQANKATLVCLISDFYPGAVTVAWKADSSPVKAGVETTTPSKQSNNKYAASSYLSLTPEQWKSHRSYSCQVTHEGSTVEKTVAPTECS
# B2: 2077-26-1 (antibody, V domains shown)
# VH: EVQLQQSGPDLVKPGASMKLSCKASGYSFTGYTMNWVKQSHGKNLEWIGLFNPYNGGPSYNQKFKGKATLTVDKSSSTAYMELLSLTPEDSAVYYCARLRYYGIGDDFFDYWGQGTTLTVSS
# VL: DIVMTQSHKFMSTSVGDRVSITCKASQDVGTAVAWYQEKPGQSPKLLIYWASTRHTGVPDRFTGSGSGTDFTLTISNVQSEDLAYYFCQQYSNYPYTFGGGTKLEIK
# B3: 2077-28-2 (antibody, V domains shown)
# VH: B2 VH with D10E, L20I, P58A, S59T, K63R, E82D, P88S, A97T, Y101K
# VL: B2 VL with E38Q, Y85D, N93T, P95T
# B4: NEG447A (antibody, human IgG1, lambda, V domains shown)
# VH: QVQLQESGPGLVKPSETLSLTCTVSGGSISRDYWSWVRQPPGAGLEWIGNIYYSGSTNYNPSLKSRVTISVATNKKQFSLKLTSVTAADTAVYYCARVPGCSSTSCIDGWFDPWGQGILVTVSS
# VL: QSVLTQPPSVSAAPGQKVTISCSGSSSNIGNTYVSWYQQLPGTAPKLLIYDNNKRPSGIPDRFSGSKSGTSATLGITGLQTGDEADYYCGTWDSSLSAWVFGGGTRLTVLG
# Tests used:
# [1] = biological target: VP1 of the pooled BKV serotype I resistance-associated variant (RAV) virus with 20 amino acid changes (BK virus (BKV) serotype I); assay: cell-based or functional assay
# [2] = biological target: T1, JCV VLPs (JC virus (JCV), UniProt P03089 1-354); assay: ELISA on plate-coated JCV VLPs (OD 450 nm)
# T1 construct: also called JC virus VLPs; JCV consensus
# [3] = biological target: VP1 on chimeric infectious BKV serotype II (BK virus (BKV) serotype II, UniProt P14996 1-362); assay: cell-based or functional assay
binder,measurement,setting,value
B1,shift in EC50 of neutralisation against wild-type virus,[1],3.9 fold
B2,EC50 (read off the curve),[2],~0.07 nM
B3,EC50 (read off the curve),[2],~0.08 nM
B4,"EC90 of neutralisation, fold change",[3],~8 fold
